The record followed here is doi:10.1101/200493.

Where two headings read alike, the source gives them in different places. A value given as a limit tells only on which side of the number the result lay.

In experiment [1] the target is His-tagged human recombinant αVβ3 integrin (human) (UniProt P06756). Kind of experiment: BLI. On the technique in general: Biolayer interferometry detects binding as a change in optical thickness at a sensor tip.
Experiment [2] has the same target. Kind of experiment: BLI. This is another data set of the same source.

Chain of His-tagged human recombinant αVβ3 integrin (human) (P06756 31-1048, chain 1 of 2): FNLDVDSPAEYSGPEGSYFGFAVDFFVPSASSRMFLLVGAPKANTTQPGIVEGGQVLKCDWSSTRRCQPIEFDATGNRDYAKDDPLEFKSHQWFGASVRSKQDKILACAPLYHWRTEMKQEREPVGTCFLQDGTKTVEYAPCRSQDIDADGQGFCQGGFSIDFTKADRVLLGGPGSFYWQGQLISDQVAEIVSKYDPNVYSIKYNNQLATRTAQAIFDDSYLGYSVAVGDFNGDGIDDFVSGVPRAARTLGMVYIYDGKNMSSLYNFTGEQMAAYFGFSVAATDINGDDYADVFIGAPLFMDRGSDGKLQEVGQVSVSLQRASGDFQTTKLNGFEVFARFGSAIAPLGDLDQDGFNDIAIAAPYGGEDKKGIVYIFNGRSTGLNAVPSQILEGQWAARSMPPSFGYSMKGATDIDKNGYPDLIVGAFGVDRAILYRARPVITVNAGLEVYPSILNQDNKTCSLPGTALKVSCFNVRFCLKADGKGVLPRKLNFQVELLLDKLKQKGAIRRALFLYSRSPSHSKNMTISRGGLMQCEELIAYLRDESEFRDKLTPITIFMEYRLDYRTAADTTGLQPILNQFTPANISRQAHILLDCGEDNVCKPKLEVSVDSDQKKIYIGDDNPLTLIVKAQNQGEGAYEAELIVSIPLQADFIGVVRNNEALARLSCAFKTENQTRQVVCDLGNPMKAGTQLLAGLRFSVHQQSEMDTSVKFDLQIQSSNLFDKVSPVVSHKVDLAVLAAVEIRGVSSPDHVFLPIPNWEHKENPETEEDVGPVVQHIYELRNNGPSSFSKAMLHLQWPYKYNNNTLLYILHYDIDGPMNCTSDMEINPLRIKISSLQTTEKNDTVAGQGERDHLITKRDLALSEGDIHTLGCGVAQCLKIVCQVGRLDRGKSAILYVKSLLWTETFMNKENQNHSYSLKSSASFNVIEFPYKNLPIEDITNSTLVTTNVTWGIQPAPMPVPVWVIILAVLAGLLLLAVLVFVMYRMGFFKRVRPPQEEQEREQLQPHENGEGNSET
Chain of His-tagged human recombinant αVβ3 integrin (human) (P05106 27-718, chain 2 of 2, further chain): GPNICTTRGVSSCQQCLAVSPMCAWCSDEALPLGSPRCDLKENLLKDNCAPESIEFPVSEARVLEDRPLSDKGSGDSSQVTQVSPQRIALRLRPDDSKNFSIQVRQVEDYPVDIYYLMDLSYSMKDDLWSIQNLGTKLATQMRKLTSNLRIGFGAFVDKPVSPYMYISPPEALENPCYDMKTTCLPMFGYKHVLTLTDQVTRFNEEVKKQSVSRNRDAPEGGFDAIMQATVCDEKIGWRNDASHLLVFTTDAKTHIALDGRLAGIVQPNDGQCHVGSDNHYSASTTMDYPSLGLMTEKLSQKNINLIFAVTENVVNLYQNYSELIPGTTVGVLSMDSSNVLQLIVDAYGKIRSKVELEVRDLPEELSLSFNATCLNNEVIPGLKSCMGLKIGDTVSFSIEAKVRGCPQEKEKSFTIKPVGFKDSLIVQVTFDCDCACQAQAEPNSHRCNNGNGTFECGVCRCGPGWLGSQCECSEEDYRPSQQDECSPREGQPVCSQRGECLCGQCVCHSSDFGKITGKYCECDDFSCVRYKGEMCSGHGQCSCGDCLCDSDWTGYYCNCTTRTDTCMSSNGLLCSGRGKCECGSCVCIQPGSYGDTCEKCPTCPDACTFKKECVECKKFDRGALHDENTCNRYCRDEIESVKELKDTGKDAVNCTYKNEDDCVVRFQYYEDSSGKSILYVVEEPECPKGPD
Chain of human vitronectin (P04004 20-478): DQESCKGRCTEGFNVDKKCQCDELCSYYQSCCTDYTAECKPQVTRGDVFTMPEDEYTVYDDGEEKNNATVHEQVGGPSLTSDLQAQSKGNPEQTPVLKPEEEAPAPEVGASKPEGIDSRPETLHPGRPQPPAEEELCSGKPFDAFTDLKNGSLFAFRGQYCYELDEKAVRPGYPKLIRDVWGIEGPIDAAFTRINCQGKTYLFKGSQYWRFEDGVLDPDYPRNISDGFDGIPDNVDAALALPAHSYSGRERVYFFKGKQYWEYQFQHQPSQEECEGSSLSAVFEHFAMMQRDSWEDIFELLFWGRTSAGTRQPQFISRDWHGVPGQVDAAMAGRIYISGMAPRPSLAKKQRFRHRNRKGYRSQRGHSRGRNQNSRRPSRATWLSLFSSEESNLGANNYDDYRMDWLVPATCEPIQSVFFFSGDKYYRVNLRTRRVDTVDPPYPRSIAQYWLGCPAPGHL

For orientation: Kd means the concentration at which binding is half-saturated. For human plasma fibronectin (ligand), the Kd in experiment [1] came to 54 nM. Take “native human fibrinogen (from UniProt P02671 36-866; P02675 45-491; P02679 27-453) (ligand)”: the Kd in experiment [1] worked out at 8.15 nM.

For the substance “human vitronectin (from UniProt P04004 20-478) (ligand)”, the results for the Kd in experiment [2] and in experiment [1] were 303 nM and less than 0.001 nM, respectively.
